From PMC5757785

Target: FlAsH-tagged Lys6-linked diubiquitin (UniProt P0CG47)
Assay: fluorescence polarisation

- Kd: 4 µM
Substance: USP30^c13i (inactive USP30 construct 13, C77A) (from UniProt Q70CQ3 1-517) (enzyme)
